Reference: the DeepSol protein solubility set

Assay: soluble on expression in E. coli; label from the status in PepcDB or PDB records

Row | Sequence | soluble on expression in E. coli
1 | MGSDKIHHHHHHMYTYKIGISKEEHDNFIKNSSQTNLLQSSSWAKVKDEWENERIGFYQDSKLVASASILIRPLPLGMTMFYIPRGPVMNYQDKDLVNFVLTSLKKFAKRKRALFIKFDPFILLNHHQIDEEAINNPQAQTIIDTLKHLGCEWLGQTSDMGETIQPRFQANIYAEGFSEANLSKKIRQSIRTAKNKGVSIRFGGYELLADFSDLMKKTEDRKSIHLRGIDYYRKLLDNYPQHSFITLASLNLKERLTELESQRKKAQNNLAKFGDNVKPSKIDNTKKEIERLSDEIAFLQEHLSQGKDTVPLSGTLSLEFGKTSENVYAGMDDEFRRYQAAIYTWFATANHAFERGSHWQNMGGIENDLSGGLYNFKSKFKPEIEEFIGEFNLPVSPLYKLANIAYTIRKKRRSKH | not soluble
2 | ETDCRWDGCSQEFDSQEQLVHHINSEHIHGERKEFVCHWGGCSRELRPFKAQYMLVVHMRRHTGEKPHKCTFEGCRKSYSRLENLKTHLRSHTGEKPYMCEHEGCSKAFSNASDRAKHQNRTHSNEKPYVCKLPGCTKRYTDPSSLRKHVKTVHG | soluble
3 | MDDPVADQPDGTDETPDGDTAGSSPIGLADAQARAREAVAELLEHPFDGIITAESGADGGWRILAEVVERSAVPDTQDIIGRYEITLDDGGRVLEHHHHHH | not soluble
4 | MGSSHHHHHHGGTGENLYFQGGSGAFRGSSARLAATPGVGIAPETTPVKYVPEMLNIQNAKWWNGRGKPVYRSTYNEKSWLEKARWGAFTKGSRPVMRQRYSAAALKEALEMVPEGFETCDVPRPPQRIRAQSEGVVGRWYTNYWTLHSVRYQCQLAGVEWQFGERQRPRTNYDEPHMYTDFEETKAIRDYRSRWINVNRSLVGMSRRMKESEEEARYLHFKKVQDTFWSNRKVLVNRIKSMHNQGTLQSAKDLPIKTINIKAFLAE | not soluble
5 | YTVEPVQDGERSVTLRRAGGTPLVAAMYHLPAAGSPDFVGLDLAATILADTPSGRLYHALVPTKLASGVFGFTMDQLDPGLAMFGAQLQPGMDQDKALQTLTATLESLSSKPFSQEELERARSKWLTAWQQTYADPEKVGVALSEAIASGDWRLFFLQRDRVRDAKLDDVQRAAVAYLVRSNRTEGRYIPTEKPQRAPLAQRADLAAV | soluble
6 | MDDDFVRALNKFNSKFSFRNKKNSLNEVLQKNKRNDKKEDINCNKLKNDLELQYIHSSNNKICQKFLTLPLNKKSDKLKDHSDKIILPVSILKTLEKGNYKNEVEFPYTFSIKNVQNNYITHACVLEFSSNEGIIFVSDNIKENLGLNKPQNSSIARVLITYCILSKCDFIKLDSLNNNINDIKYMKNLLENELSLNYSTLTLGDYIHINHLNFYISELEPDNAVSLINTDINVDICERNNMEGYKNVNILGDHKDIYEIIKIDIPINSSIQKGMNKYKFVLNNNTLDLLKKGKIELAIHLQSQMMLHSLNLFISLPPLDSVSEVLHHLYIDDYSTDEIIINREVIRNILKLHFACMIKEQPYNKNNDNHHANDKEDNVHNGTCNDHHEDDKIEKQNYDDSFLEYIFEHFFPHIIYIGVHNYMDTLVDYSICLKLNGEKNMSTKKDDSNNKCVNTSGFIHNNINLLKNININTQDIDNNNNDDTYITCDNCLKNILKYNIHMHKIHCLKNFTLCNICKKVLKKNEKDNHIHCDICNEGMHKNKKKTHELIWHTQIKCVCDKLLFRKQFIFHQNLFCPKKIIYCTFCNIFTQSNINIYNEEFILATFFDKYDNIKTNNSTVNKSIKYYYNMLFTYFHFFLKYIKNTEHEKYCGSKSINCTICKQIIYRNEYLLHLNTLHHFNKIESFKIINDNADLSQLMN | not soluble
7 | SNDYRVAVFGAGGVGKSSLVLRFVKGTFRESYIPTVEDTYRQVISCDKSICTLQITDTTGSHQFPAMQRLSISKGHAFILVYSITSRQSLEELKPIYEQICEIKGDVESIPIMLVGNKCDESPSREVQSSEAEALARTWKCAFMETSAKLNHNVKELFQELLNLEKRRTVSL | soluble
8 | MSKRNTQLRRHAISNMVNELGEVSVDELAQKFETSEVTIRKDLASLEKNGQLLRRYGGAIAIPTEVIHEELSSNVSTRKLSLAKAAASLIRDHNRIVIDSGSTTAALIQQLNDKRGLVVMTNSLHVANALNELESEPTLLMTGGTWDTHSESFQGKVAESVLRAYDFDQLFIGADGIDLERGTTTFNELVGLSKVMAEVSREVIVMIESEKIGRKIPNLELAWHQIDVLVTDADIQPEHKVQIEQHGVKVICALEHHHHHH | soluble
9 | MTESEVRKLLRQMKELDSQTAFRDFYNMTYDRLFRIAYYYVKQEEWSQEIVLDIFLKLWKQRDTLLDVKNIEDYCFILVKNASLNYLEKESKYTTIHSDSLPEPQEQSYSPEESLISEELFAIYVKALDRLPERCREIFIRIREEKQSYAQVAEELDISIKTVDAQLQKAVSRLKEMISSSG | not soluble
10 | MGGSHHHHHHGMASALQRVSGLLSWTLSRVLWLSGLSEPGAARQPRIMEEKALEVYDLIRTIRDPEKPNTLEELEVVSESCVEVQEINEEEYLVIIRFTPTVPHCSLATLIGLCLRVKLQRCLPFKHKLEIYISEGTHSTEEDINKQINDKERVAAAMENPNLREIVEQCVLEPD | not soluble
11 | MDSGVEASGYPPVGRAKILLERAVNPIPSPRRELEQYTTPADIAVRIAVDALLRGLLEGALAADLAAGTCRLGLALLLYGASRVAAVEADGRLAGLCLGAAEKLGLGGRIFFVASRVSRRRGPLAAGSVDLVATNPPFGVWRRGADWEVLEYALRLKPRAVYAIVKSGNMGFHAAKAAGLGYSTLLISREHFPIPASMPGHRSRVRRVSVDVVLFTRGG | soluble
12 | MSLRVQLILHLEIPKEVCRSLEVDNYINNSIEINLKCEKKPTLYIKTHSIGSLKSILDDFFRCQNAAMEVYNLIKTYTIRNVTKDDLDDFLELYFKAYRGFDKYYYKKKKWARWYFKWLMKRDEDGFFVCEVNGKPVGFVACDCNWISNIEKREVAEIHEIFVDPDFRGRGIGTALINKAIEYAKKRGRRIVELWVGVENKGAIEFYKRLGFEEKEVVKGWLRMVKRIEGHHHHHH | not soluble
13 | MGSDKIHHHHHHMDNDWIADYLRPRLARDNGEHLSRQLYRQLRELIGQRRLAGGSVLPASRALAQAMQLGRNTVLSAYDQLAAEGYLESRHGSGTYVCDVFTNSTSQTSHSTAPARPLSQRGQRLTASSRLPVRKLGAFVPGLPELELFPHKAWQQCLARQQRSAPLEWLHYQHQGGLPALQSALIQYLYLTRSVRCEPEQIIIAPGAQNALTLLAQLLADPGDAIWLEEPGYAGAQAAMQAAGLRCQAIRVDEQGLRPDPEAAPPRIIYVTPAHQYPTGAVMALPRRLELLAHARRHGSWIIEDDYDGEFCYASAPLAALQSLDRDGRVIYLGTFSKVMFPSLKLAYLVLPPELVDSYRRCQARLQGEGSYLQQAAVADFIAQGHFARHIRHMRELYQRRQQLLKHAADQYLGHAMSLHGGDAGMHLLAELPDGFDEWELQAAAAERLLWLRPLARHFLDTPYRNGLVLGYAGIDDHAIRPAVQQLADLLETRLK | not soluble
14 | MQTEVKETPRYAIVASVQLPEVSDAEFEASLTELSELAKTLGFQVVQTFVQKRSSFDRTAYMGVGKLDEISMYVKRGIRADELEDEPQELDASSVAIDALLVDHEISPSQARNLELAVGCEVMDRTMVILEIFHRNARSRAARAQVEIARLGYMAPRLREAAKLAGPQGRQRSGMGGRGAGESHTELDRRKVRDRIAELQREIVAMELERKTQRARRLERQGLGLGGVSLVGYTNAGKSTLMRALTGSEVLVANKLFATLDTTVRVLHPESVPRVLVSDTVGFIKNLPHGLVASFKSTLEEALDASLLLHAIDASDPGFQRQLEVTDEVLREIGADDVPRIRVFNKIDHVGDEAEQAAWTAELRQRYPGCVVMSALRPEDVASLRAAIVAFFQQDLVEDELLLPWSAQQLRGEIYSHCQVLEERAEEEGCWFRVRGEPEKLRSLREQLNPGSQGREKEYWEALEHHHHHH | not soluble
15 | MDFYYLPGSAPCRAVQMTAAAVGVELNLKLTNLMAGEHMKPEFLKLNPQHCIPTLVDEDGFVLWESRAIQIYLVEKYGAHDADLAERLYPSDPRRRAVVHQRLFFDVAVLYQRFAEYYEPQIFGQKVPVGDPGRLRSMEQALEFLNTFLEGEQYVAGGDDPTIADLSILATIATYEVAGYDLRRYENVQRWYERTSAIVPGADKNVEGAKVFGRYFTQK | soluble
16 | MVKKSYVINWARDLANRGVGVNYDGAFGSQCVDLPFWILGKFFGRPISGNAIDLLNSAKAAGYQVIYDAPGVNPRVGDIFVMHSIAYDGKDYGHTGLVIEDSDGHSIKTIEQNVDGNADNLYVGGPARYRTRSFNGIIGWIRPPYENEILENKREETDMRDFFVITNSEYTFAGVHYAKGAVLHVSPTQKRAFWVIADQENFIKQVNKNIEYVEKNASPAFLQRIVEIYQVKFEGKNVH | soluble
17 | MAKDPRYVGNLPKIGIRPTIDGRRKGVRESLEETTMNMAKAVAKLLEENVFYYNGQPVECVIADTCIGGVKEAAEAAEKFAREGVGVSITVTPCWCYGTETMDMDPHIPKAVWGFNGTERPGAVYLAAVLAGYNQKGLPAFGIYGKDVQDAGDTNIPEDVKEKLIRFAKAGLAVAMMKGKSYLSIGSVSMGIAGSVVQEDFFQNYLGMRNEYVDMSEFVRRIELGIYDKEEYERALKWVKENCKVGPDNNRDGFKRTEEQKEKDWEISVKMALIARDLMVGNKKLEEMGYGEEALGRNAIVAGFQGQRQWTDYFPNGDFMETILNSSFDWNGKRAPYIFATENDNLNGISMLFGYLLTNTAQIFADVRTYWSPEAVKRVTGYTLEGRAANGIIHLINSGAAALDGTGEQTKDGKPVIKPYYELTDEDIKKCLEATQFRPASTEYFRGGGYSTDFLTKGGMPVTISRLNIVKGLGPVLQIAEGYTVDLPEEVHDVLDKRTDPTWPTTWFVPNLTGEGAFKDVYSVMNNWGANHCSISYGHIGADLITLASILRIPVNMHNVPEEKIFRPDAWSMFGTKDLEGADYRACKKLGPIYK | soluble
18 | MPDRLQLLEERLVVNKDRFKAGSVQIGKRIETRQETVSVPLQREEVVIERHAVTDGRAVEGAVLGEGHQTMSVDLEAERANISKQAYVTEEVSVGKRAVTETQQVTETVGREVLDVNQTGDVRLEHHHHHH | not soluble
19 | MSLGIKMRSVVVKEPGQLNIESRPVPVPGAHEVRVKIAFAGICGSDVHIYHGHNPFAKYPRVIGHEFYGIIDAVGEQVSPARIGERVAVDPVVSCGHCYPCSVGRPNVCTQLQVIGVHRDGGFSDYACVPAKNAWRIPEAISDRQATMVEPFTIAANITAQLQPTAQDIALVYGAGPMGLTIIQALKGVYGVKQVIVVDRIAERLQMARENGADLTLDNTDQPLAEQLAQRQLAPTLVIDAACHPAILQEAILLASPAARIGILGFSGEASTLTQQSITSKEISIFSSRLNSGRFPLVIDWMEKGLIRPEALITHCMPLEQVKEAMEIFANDRKTCCKVLLQLGEGHHHHHH | soluble
20 | MALVKIVRIETFPLFHRLEKPYGDANGFKRYRTCYLIRIITESGIDGWGECVDWLPALHVGFTKRIIPFLLGKQAGSRLSLVRTIQKWHQRAASAVSMALTEIAAKAADCSVCELWGGRYREEIPVYASFQSYSDSPQWISRSVSNVEAQLKKGFEQIKVKIGGTSFKEDVRHINALQHTAGSSITMILDANQSYDAAAAFKWERYFSEWTNIGWLEEPLPFDQPQDYAMLRSRLSVPVAGGENMKGPAQYVPLLSQRCLDIIQPDVMHVNGIDEFRDCLQLARYFGVRASAHAYDGSLSRLYALFAQACLPPWSKMKNDHIEPIEWDVMENPFTDLVSLQPSKGMVHIPKGKGIGTEINMEIVNRYKWDGSAYEGHHHHHH | soluble
21 | MPFIAAMWHGQHIMISFMSRPQDRVATIISRSPDGNINTMALTRMGVRVMRASGARGRAVKDARAKGGAEGLRAMVKALKGGETVAFSADVPKVSRVCLEHHHHHH | not soluble
